Experimental data as given in patent publication US20140162960.

Tests used:
[1] = target: T1, myc-tagged IQGAP1 WW domain expressed from lentivirus (pLEX-mycWW)
T1 chain: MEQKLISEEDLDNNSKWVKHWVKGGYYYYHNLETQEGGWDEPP

[2] = target: myc-tagged mutant IQGAP1 WW domain expressed from lentivirus (pLEX-mycYY)

B1: ERK1 (extracellular signal-regulated kinase 1), endogenous (protein)
chain: AAAAAQGGGGGEPRRTEGVGPGVPGEVEMVKGQPFDVGPRYTQLQYIGEGAYGMVSSAYDHVRKTRVAIKKISPFEHQTYCQRTLREIQILLRFRHENVIGIRDILRASTLEAMRDVYIVQDLMETDLYKLLKSQQLSNDHICYFLYQILRGLKYIHSANVLHRDLKPSNLLINTTCDLKICDFGLARIADPEHDHTGFLTEYVATRWYRAPEIMLNSKGYTKSIDIWSVGCILAEMLSNRPIFPGKHYLDQLNHILGILGSPSQEDLNCIINMKARNYLQSLPSKTKVAWAKLFPKSDSKALDLLDRMLTFNPNKRITVEEALAHPYLEQYYDPTDEPVAEEPFTFAMELDDLPKERLKELIFQETARFQPGVLEAP
- pELK1 levels in IP-kinase assay (pERK immunoprecipitate, ELK-1 substrate) [1]: revealed diminished downstream pELK1 levels as compared to control treated cells
- phosphorylated ERK levels (tissue stain and immunoblot) [1]: WW domain expressing tissue also showed diminished phosphorylated ERK without an effect on total ERK levels
- phosphorylated ERK levels (immunoblot) [2]: Primary normal human keratinocytes infected with this WW domain mutant had normal levels of phosphorylated ERK
